# Measurements published in US20240066131A1 (Protagonist Therapeutics, Inc., priority 2020, published 2024).
# Non-standard residues stand in square brackets, D forms with d. Groups on a side chain read outwards from the residue. *: point of attachment. C18 diacid = O=C(O)CCCCCCCCCCCCCCCCC(=O)*; Dip = N[C@H](C(=O)O)C(c1ccccc1)c1ccccc1; Palmitoyl = CCCCCCCCCCCCCCCC(=O)*; NMeF = CN[C@@H](Cc1ccccc1)C(=O)O; β3hF = N[C@H](CC(=O)O)Cc1ccccc1; Isovaleryl = CC(C)CC(=O)*; (Me)Leu = methyl-leucine; AEEA = NCCOCCOCC(=O)O; Ahx = NCCCCCC(=O)O
# B1: Isovaleric Acid-E-T-H-[Dpa]-P-E-I-[(D)Lys]-[bhPhe]-[Lys(Ahx_Palm)]-NH2 (peptide)
# peptide: Isovaleryl-ETH[Dip]PEI[dK][β3hF]K([Ahx-Palmitoyl])-NH2
# SMILES: CCCCCCCCCCCCCCCC(=O)NCCCCCC(=O)NCCCC[C@H](NC(=O)C[C@H](Cc1ccccc1)NC(=O)[C@@H](CCCCN)NC(=O)[C@@H](NC(=O)[C@H](CCC(=O)O)NC(=O)[C@@H]1CCCN1C(=O)[C@@H](NC(=O)[C@H](Cc1c[nH]cn1)NC(=O)[C@@H](NC(=O)[C@H](CCC(=O)O)NC(=O)CC(C)C)[C@@H](C)O)C(c1ccccc1)c1ccccc1)[C@@H](C)CC)C(N)=O
# B2: Isovaleric Acid-E-T-H-[Dpa]-P-S-I-[(D)Lys]-[bhPhe]-[Lys(Ahx_Palm)]-NH2 (peptide)
# peptide: Isovaleryl-ETH[Dip]PSI[dK][β3hF]K([Ahx-Palmitoyl])-NH2
# SMILES: CCCCCCCCCCCCCCCC(=O)NCCCCCC(=O)NCCCC[C@H](NC(=O)C[C@H](Cc1ccccc1)NC(=O)[C@@H](CCCCN)NC(=O)[C@@H](NC(=O)[C@H](CO)NC(=O)[C@@H]1CCCN1C(=O)[C@@H](NC(=O)[C@H](Cc1c[nH]cn1)NC(=O)[C@@H](NC(=O)[C@H](CCC(=O)O)NC(=O)CC(C)C)[C@@H](C)O)C(c1ccccc1)c1ccccc1)[C@@H](C)CC)C(N)=O
# B3: Isovaleric Acid-E-T-H-[Dpa]-P-[(D)Lys]-I-[(D)Lys]-[bhPhe]-[Lys(Ahx_Palm)]-NH2 (peptide)
# peptide: Isovaleryl-ETH[Dip]P[dK]I[dK][β3hF]K([Ahx-Palmitoyl])-NH2
# SMILES: CCCCCCCCCCCCCCCC(=O)NCCCCCC(=O)NCCCC[C@H](NC(=O)C[C@H](Cc1ccccc1)NC(=O)[C@@H](CCCCN)NC(=O)[C@@H](NC(=O)[C@@H](CCCCN)NC(=O)[C@@H]1CCCN1C(=O)[C@@H](NC(=O)[C@H](Cc1c[nH]cn1)NC(=O)[C@@H](NC(=O)[C@H](CCC(=O)O)NC(=O)CC(C)C)[C@@H](C)O)C(c1ccccc1)c1ccccc1)[C@@H](C)CC)C(N)=O
# B4: Isovaleric Acid-E-T-H-[Dpa]-P-F-I-[(D)Lys]-[bhPhe]-[Lys(Ahx_Palm)]-NH2 (peptide)
# peptide: Isovaleryl-ETH[Dip]PFI[dK][β3hF]K([Ahx-Palmitoyl])-NH2
# SMILES: CCCCCCCCCCCCCCCC(=O)NCCCCCC(=O)NCCCC[C@H](NC(=O)C[C@H](Cc1ccccc1)NC(=O)[C@@H](CCCCN)NC(=O)[C@@H](NC(=O)[C@H](Cc1ccccc1)NC(=O)[C@@H]1CCCN1C(=O)[C@@H](NC(=O)[C@H](Cc1c[nH]cn1)NC(=O)[C@@H](NC(=O)[C@H](CCC(=O)O)NC(=O)CC(C)C)[C@@H](C)O)C(c1ccccc1)c1ccccc1)[C@@H](C)CC)C(N)=O
# B5: Isovaleric Acid-E-T-H-[Dpa]-P-A-I-[Lys(1Peg2_1Peg2_Ahx_C18_Diacid-[(D)Lys]-[bhPhe]-[(D)Lys]-A-NH2 (peptide)
# peptide: Isovaleryl-ETH[Dip]PAIK([AEEA-AEEA-Ahx-C18 diacid])[dK][β3hF][dK]A-NH2
# SMILES: CC[C@H](C)[C@H](NC(=O)[C@H](C)NC(=O)[C@@H]1CCCN1C(=O)[C@@H](NC(=O)[C@H](Cc1c[nH]cn1)NC(=O)[C@@H](NC(=O)[C@H](CCC(=O)O)NC(=O)CC(C)C)[C@@H](C)O)C(c1ccccc1)c1ccccc1)C(=O)N[C@@H](CCCCNC(=O)COCCOCCNC(=O)COCCOCCNC(=O)CCCCCNC(=O)CCCCCCCCCCCCCCCCC(=O)O)C(=O)N[C@H](CCCCN)C(=O)N[C@H](CC(=O)N[C@H](CCCCN)C(=O)N[C@@H](C)C(N)=O)Cc1ccccc1
# B6: Isovaleric Acid-E-T-H-[Dpa]-P-A-[Lys(Ac)]-NH2 (peptide)
# peptide: Isovaleryl-ETH[Dip]PAK(Ac)-NH2
# SMILES: CC(=O)NCCCC[C@H](NC(=O)[C@H](C)NC(=O)[C@@H]1CCCN1C(=O)[C@@H](NC(=O)[C@H](Cc1c[nH]cn1)NC(=O)[C@@H](NC(=O)[C@H](CCC(=O)O)NC(=O)CC(C)C)[C@@H](C)O)C(c1ccccc1)c1ccccc1)C(N)=O
# B7: Isovaleric Acid-E-T-H-[Dpa]-P-I-[(D)Lys]-[bhPhe]-[Lys(Ahx_Palm)]-NH2 (peptide)
# peptide: Isovaleryl-ETH[Dip]PI[dK][β3hF]K([Ahx-Palmitoyl])-NH2
# SMILES: CCCCCCCCCCCCCCCC(=O)NCCCCCC(=O)NCCCC[C@H](NC(=O)C[C@H](Cc1ccccc1)NC(=O)[C@@H](CCCCN)NC(=O)[C@@H](NC(=O)[C@@H]1CCCN1C(=O)[C@@H](NC(=O)[C@H](Cc1c[nH]cn1)NC(=O)[C@@H](NC(=O)[C@H](CCC(=O)O)NC(=O)CC(C)C)[C@@H](C)O)C(c1ccccc1)c1ccccc1)[C@@H](C)CC)C(N)=O
# B8: Isovaleric Acid-E-T-H-[Dpa]-P-[Lys(Ahx_Palm)]-I-[(D)Lys]-[bhPhe]-[Lys(Ac)]-NH2 (peptide)
# peptide: Isovaleryl-ETH[Dip]PK([Ahx-Palmitoyl])I[dK][β3hF]K(Ac)-NH2
# SMILES: CCCCCCCCCCCCCCCC(=O)NCCCCCC(=O)NCCCC[C@H](NC(=O)[C@@H]1CCCN1C(=O)[C@@H](NC(=O)[C@H](Cc1c[nH]cn1)NC(=O)[C@@H](NC(=O)[C@H](CCC(=O)O)NC(=O)CC(C)C)[C@@H](C)O)C(c1ccccc1)c1ccccc1)C(=O)N[C@H](C(=O)N[C@H](CCCCN)C(=O)N[C@H](CC(=O)N[C@@H](CCCCNC(C)=O)C(N)=O)Cc1ccccc1)[C@@H](C)CC
# B9: Isovaleric Acid-E-T-H-[Dpa]-P-A-I-[(D)Lys]-A-[Lys(Ahx_Palm)]-[(D)Lys]-A-NH2 (peptide)
# peptide: Isovaleryl-ETH[Dip]PAI[dK]AK([Ahx-Palmitoyl])[dK]A-NH2
# SMILES: CCCCCCCCCCCCCCCC(=O)NCCCCCC(=O)NCCCC[C@H](NC(=O)[C@H](C)NC(=O)[C@@H](CCCCN)NC(=O)[C@@H](NC(=O)[C@H](C)NC(=O)[C@@H]1CCCN1C(=O)[C@@H](NC(=O)[C@H](Cc1c[nH]cn1)NC(=O)[C@@H](NC(=O)[C@H](CCC(=O)O)NC(=O)CC(C)C)[C@@H](C)O)C(c1ccccc1)c1ccccc1)[C@@H](C)CC)C(=O)N[C@H](CCCCN)C(=O)N[C@@H](C)C(N)=O
# B10: Isovaleric Acid-E-T-H-[Dpa]-P-A-I-[Lys(Ac)]-NH2 (peptide)
# peptide: Isovaleryl-ETH[Dip]PAIK(Ac)-NH2
# SMILES: CC[C@H](C)[C@H](NC(=O)[C@H](C)NC(=O)[C@@H]1CCCN1C(=O)[C@@H](NC(=O)[C@H](Cc1c[nH]cn1)NC(=O)[C@@H](NC(=O)[C@H](CCC(=O)O)NC(=O)CC(C)C)[C@@H](C)O)C(c1ccccc1)c1ccccc1)C(=O)N[C@@H](CCCCNC(C)=O)C(N)=O
# B11: Isovaleric Acid-E-T-H-[Dpa]-P-L-I-[(D)Lys]-[bhPhe]-[Lys(Ahx_Palm)]-[(D)Lys]-L-NH2 (peptide)
# peptide: Isovaleryl-ETH[Dip]PLI[dK][β3hF]K([Ahx-Palmitoyl])[dK]L-NH2
# SMILES: CCCCCCCCCCCCCCCC(=O)NCCCCCC(=O)NCCCC[C@H](NC(=O)C[C@H](Cc1ccccc1)NC(=O)[C@@H](CCCCN)NC(=O)[C@@H](NC(=O)[C@H](CC(C)C)NC(=O)[C@@H]1CCCN1C(=O)[C@@H](NC(=O)[C@H](Cc1c[nH]cn1)NC(=O)[C@@H](NC(=O)[C@H](CCC(=O)O)NC(=O)CC(C)C)[C@@H](C)O)C(c1ccccc1)c1ccccc1)[C@@H](C)CC)C(=O)N[C@H](CCCCN)C(=O)N[C@@H](CC(C)C)C(N)=O
# B12: Isovaleric Acid-L-T-H-[Dpa]-P-L-I-[Lys(Ahx_Palm)]-[(Me)Phe]-NH2 (peptide)
# peptide: Isovaleryl-LTH[Dip]PLIK([Ahx-Palmitoyl])[NMeF]-NH2
# SMILES: CCCCCCCCCCCCCCCC(=O)NCCCCCC(=O)NCCCC[C@H](NC(=O)[C@@H](NC(=O)[C@H](CC(C)C)NC(=O)[C@@H]1CCCN1C(=O)[C@@H](NC(=O)[C@H](Cc1c[nH]cn1)NC(=O)[C@@H](NC(=O)[C@H](CC(C)C)NC(=O)CC(C)C)[C@@H](C)O)C(c1ccccc1)c1ccccc1)[C@@H](C)CC)C(=O)N(C)[C@@H](Cc1ccccc1)C(N)=O
# Target: T1, human ferroportin (SLC40A1) fused in frame with GFP, stably expressed in HEK293 cells (human, UniProt Q9NP59 1-571)
# T1 sequence (looked up): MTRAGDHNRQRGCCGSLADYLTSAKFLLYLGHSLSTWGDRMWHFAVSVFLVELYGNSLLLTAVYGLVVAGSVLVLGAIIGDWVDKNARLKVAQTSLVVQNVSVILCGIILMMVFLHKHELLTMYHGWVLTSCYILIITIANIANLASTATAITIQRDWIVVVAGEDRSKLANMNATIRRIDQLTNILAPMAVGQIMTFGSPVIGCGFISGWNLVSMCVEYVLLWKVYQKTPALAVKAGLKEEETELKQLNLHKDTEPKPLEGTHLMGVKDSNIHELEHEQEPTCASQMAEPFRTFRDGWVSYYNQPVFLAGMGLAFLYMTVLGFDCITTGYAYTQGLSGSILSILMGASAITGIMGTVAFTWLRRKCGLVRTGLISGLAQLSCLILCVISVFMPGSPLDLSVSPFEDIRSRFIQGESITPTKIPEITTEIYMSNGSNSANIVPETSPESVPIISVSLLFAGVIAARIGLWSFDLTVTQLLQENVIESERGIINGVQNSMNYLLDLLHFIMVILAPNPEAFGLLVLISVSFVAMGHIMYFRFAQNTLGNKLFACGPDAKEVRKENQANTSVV
# Assay: cell-based or functional assay
row,Binder,FPN EC50
1,B1,682 nM
2,B2,46.3 nM
3,B3,532 nM
4,B4,24.1 nM
5,B5,325 nM
6,B6,35700 nM
7,B7,22.9 nM
8,B8,91.9 nM
9,Isovaleryl-LTH[Dip]PAIK([Ahx-Palmitoyl])[(Me)Leu]-NH2 [Isovaleric Acid-L-T-H-[Dpa]-P-A-I-[Lys(Ahx_Palm)]-[(Me)Leu]-NH2],508 nM
10,Isovaleryl-ETH[Dip]PAI[dK]K(Ac)-NH2 [Isovaleric Acid-E-T-H-[Dpa]-P-A-I-[(D)Lys]-[Lys(Ac)]-NH2],814 nM
11,XETHXPX (N-term Isovaleric Acid; Dpa4; Lys(Ac)6; C-term NH2) [Isovaleric Acid-E-T-H-[Dpa]-P-[Lys(Ac)]-NH2],8410 nM
12,B9,50.6 nM
13,Isovaleryl-LTH[Dip]P[(Me)Leu]IK([Ahx-Palmitoyl])[NMeF]-NH2 [Isovaleric Acid-L-T-H-[Dpa]-P-[(Me)Leu]-I-[Lys(Ahx_Palm)]-[(Me)Phe]-NH2],2290 nM
14,Isovaleryl-LTH[Dip]PLIK([Ahx-Palmitoyl])[(Me)Leu]-NH2 [Isovaleric Acid-L-T-H-[Dpa]-P-L-I-[Lys(Ahx_Palm)]-[(Me)Leu]-NH2],287 nM
15,B10,1040 nM
16,Isovaleryl-LTH[Dip]P[(Me)Leu]IK([Ahx-Palmitoyl])L-NH2 [Isovaleric Acid-L-T-H-[Dpa]-P-[(Me)Leu]-I-[Lys(Ahx_Palm)]-L-NH2],2760 nM
17,B11,4.5 nM
18,B12,764 nM
19,Isovaleryl-ATH[Dip]PAI[dK][β3hF]K([Ahx-Palmitoyl])-NH2 [Isovaleric Acid-A-T-H-[Dpa]-P-A-I-[(D)Lys]-[bhPhe]-[Lys(Ahx_Palm)]-NH2],40.6 nM
20,Isovaleryl-ETH[Dip]PAIK([AEEA-AEEA-Ahx-C18 diacid])-NH2 [Isovaleric Acid-E-T-H-[Dpa]-P-A-I-[Lys(1Peg2_1Peg2_Ahx_C18_Diacid)]-NH2],593 nM
